Changes are numbered by the printed parent chain.
B1: humanized Y1238 hz27 (hz-HC6 / hz-LC2), IgG1.3f (antibody, V domains shown)
VH: QVQLVQSGAEVKKPGASVKVSCKASGYAFTNYLIEWVRQRPGQGLEWMGVINPGSGGTNYNEKFKGRVTLTADKSISTAYMELSRLRSDDTAVYYCARSQLGRRFDYWGQGTLVTVSS
VL: DIQMTQSPSSLSASVGDRVTITCKASQDVRTGVAWYQQKPGKAPKLLIYSASYRNTGVPSRFSGSRSGTDFTFTISSLQPEDIATYYCQQHYSPPYTFGGGTKVEIK
notes: IgG1.3f heavy constant, common CL; expression supernatant; also called Sup 27
B2: humanized Y1238 hz40 (hz-HC8 / hz-LC5), IgG1.3f (antibody, V domains shown)
VH: B1 VH with K12V, I76S, E82Q, Y95F
VL: B1 VL with K42Q, T85V
notes: IgG1.3f heavy constant, common CL; expression supernatant; also called Sup 40
B3: humanized Y1238 hz5 (hz-HC1 / hz-LC5), IgG1.3f (antibody, V domains shown)
VH: B1 VH with R40A, L70M, A72R, K74T
VL: B1 VL with K42Q, T85V
notes: IgG1.3f heavy constant, common CL; expression supernatant; also called Sup 5
B4: humanized Y1238 hz24 (hz-HC5 / hz-LC4), IgG1.3f (antibody, V domains shown)
VH: B1 VH with L70M
VL: B1 VL with K42Q, A43S, P80A, T85V
notes: IgG1.3f heavy constant, common CL; expression supernatant; also called Sup 24
B5: humanized Y1238 hz9 (hz-HC2 / hz-LC4), IgG1.3f (antibody, V domains shown)
VH: B1 VH with R40A, L70M, K74T
VL: B1 VL with K42Q, A43S, P80A, T85V
notes: IgG1.3f heavy constant, common CL; expression supernatant; also called Sup 9
B6: humanized Y1238 hz18 (hz-HC4 / hz-LC3), IgG1.3f (antibody, V domains shown)
VH: B1 VH with R40A, L70M
VL: B1 VL with K42Q, A43S, T85V
notes: IgG1.3f heavy constant, common CL; expression supernatant; also called Sup 18
B7: humanized Y1238 hz31 (hz-HC7 / hz-LC1), IgG1.3f (antibody, V domains shown)
VH: B1 VH with K12V, L70M, I76S, E82Q, Y95F
VL: B1 VL with R66G
notes: IgG1.3f heavy constant, common CL; expression supernatant; also called Sup 31
B8: humanized Y1238 hz6 (hz-HC2 / hz-LC1), IgG1.3f (antibody, V domains shown)
VH: B1 VH with R40A, L70M, K74T
VL: B1 VL with R66G
notes: IgG1.3f heavy constant, common CL; expression supernatant; also called Sup 6
B9: humanized Y1238 hz26 (hz-HC6 / hz-LC1), IgG1.3f (antibody, V domains shown)
VH: B1 VH
VL: B1 VL with R66G
notes: IgG1.3f heavy constant, common CL; expression supernatant; also called Sup 26
B10: humanized Y1238 hz4 (hz-HC1 / hz-LC4), IgG1.3f (antibody, V domains shown)
VH: B1 VH with R40A, L70M, A72R, K74T
VL: B1 VL with K42Q, A43S, P80A, T85V
notes: IgG1.3f heavy constant, common CL; expression supernatant; also called Sup 4
B11: humanized Y1238 hz3 (hz-HC1 / hz-LC3), IgG1.3f (antibody, V domains shown)
VH: B1 VH with R40A, L70M, A72R, K74T
VL: B1 VL with K42Q, A43S, T85V
notes: IgG1.3f heavy constant, common CL; expression supernatant; also called Sup 3
B12: humanized Y1238 hz17 (hz-HC4 / hz-LC2), IgG1.3f (antibody, V domains shown)
VH: B1 VH with R40A, L70M
VL: B1 VL
notes: IgG1.3f heavy constant, common CL; expression supernatant; also called Sup 17
B13: humanized Y1238 hz34 (hz-HC7 / hz-LC4), IgG1.3f (antibody, V domains shown)
VH: B1 VH with K12V, L70M, I76S, E82Q, Y95F
VL: B1 VL with K42Q, A43S, P80A, T85V
notes: IgG1.3f heavy constant, common CL; expression supernatant; also called Sup 34
B14: humanized Y1238 hz29 (hz-HC6 / hz-LC4), IgG1.3f (antibody, V domains shown)
VH: B1 VH
VL: B1 VL with K42Q, A43S, P80A, T85V
notes: IgG1.3f heavy constant, common CL; expression supernatant; also called Sup 29
B15: humanized Y1238 hz38 (hz-HC8 / hz-LC3), IgG1.3f (antibody, V domains shown)
VH: B1 VH with K12V, I76S, E82Q, Y95F
VL: B1 VL with K42Q, A43S, T85V
notes: IgG1.3f heavy constant, common CL; expression supernatant; also called Sup 38
B16: humanized Y1238 hz30 (hz-HC6 / hz-LC5), IgG1.3f (antibody, V domains shown)
VH: B1 VH
VL: B1 VL with K42Q, T85V
notes: IgG1.3f heavy constant, common CL; expression supernatant; also called Sup 30
B17: humanized Y1238 hz23 (hz-HC5 / hz-LC3), IgG1.3f (antibody, V domains shown)
VH: B1 VH with L70M
VL: B1 VL with K42Q, A43S, T85V
notes: IgG1.3f heavy constant, common CL; expression supernatant; also called Sup 23
B18: humanized Y1238 hz42 (hz-HC9 / hz-LC2), IgG1.3f (antibody, V domains shown)
VH: B1 VH with K12V, I76S, E82Q, Y95F, L113T
VL: B1 VL
notes: IgG1.3f heavy constant, common CL; expression supernatant; also called Sup 42

Biological target: T1, human-CD40 monomer (human, UniProt P25942 21-193, limits assumed)
T1 construct: also called hCD40-monomer; human-CD40-monomer protein
Experiment: SPR 2 pt screen, Ab on protein A
Description: The VH sequences were formatted in the context of an IgG1.3f isotype. The Vκ sequences were formatted as a full light chain with a common CL sequence. All 55 combinations of these humanized HC and LC constructs, as well as the chimeric Y1238 molecule were expressed as 3 ml supernatants for binding analysis by SPR. Each of the 56 supernatants, as well as a purified Y1238-chimeric IgG1 antibody, was captured on a protein A sensor chip and tested for binding to two concentrations (i.e., 200 nM and 1000 nM) of hCD40-monomer using BIAcore™ SPR in a screening assay. All antibodies, except for those containing hz-HC3, captured at high levels (>300 RU) using a 100-fold dilution of the expression supernatant, indicating a high antibody titer in the supernatant except for the hz-HC3 samples. The kinetic data for the two concentrations of hCD40-monomer were fit to a 1:1 Langmuir model, to yield estimates of the kinetic and affinity values for these interactions, and for comparison of the different molecules. […] Also, for a given heavy chain, the antibodies with light chains hz-LC1 or hz-LC2 had higher CD40 affinity than those with hz-LC3, hz-LC4 or hz-LC5.

T1 sequence (P25942 21-193 limits assumed): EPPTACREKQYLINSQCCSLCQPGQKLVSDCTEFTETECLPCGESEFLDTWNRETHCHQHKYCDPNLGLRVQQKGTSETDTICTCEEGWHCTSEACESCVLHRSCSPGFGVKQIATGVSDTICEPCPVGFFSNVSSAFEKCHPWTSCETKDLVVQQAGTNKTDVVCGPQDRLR

Binder | Kd | koff | kon
B1 | 3.3 nM | 0.00013 s⁻¹ | 40000 M⁻¹ s⁻¹
B2 | 6.5 nM | 0.00026 s⁻¹ | 39000 M⁻¹ s⁻¹
B3 | 11 nM | 0.0005 s⁻¹ | 47000 M⁻¹ s⁻¹
B4 | 7.4 nM | 0.00032 s⁻¹ | 43000 M⁻¹ s⁻¹
B5 | 6.6 nM | 0.00031 s⁻¹ | 47000 M⁻¹ s⁻¹
B6 | 7.6 nM | 0.00035 s⁻¹ | 46000 M⁻¹ s⁻¹
B7 | 3 nM | 0.00012 s⁻¹ | 39000 M⁻¹ s⁻¹
B8 | 2.7 nM | 0.00012 s⁻¹ | 45000 M⁻¹ s⁻¹
B9 | 2.9 nM | 0.00012 s⁻¹ | 41000 M⁻¹ s⁻¹
B10 | 8.9 nM | 0.00042 s⁻¹ | 48000 M⁻¹ s⁻¹
B11 | 10 nM | 0.00048 s⁻¹ | 48000 M⁻¹ s⁻¹
B12 | 4.4 nM | 0.00018 s⁻¹ | 42000 M⁻¹ s⁻¹
B13 | 7.1 nM | 0.00028 s⁻¹ | 40000 M⁻¹ s⁻¹
B14 | 6.5 nM | 0.00028 s⁻¹ | 42000 M⁻¹ s⁻¹
B15 | 8.2 nM | 0.00032 s⁻¹ | 39000 M⁻¹ s⁻¹
B16 | 7.7 nM | 0.00033 s⁻¹ | 42000 M⁻¹ s⁻¹
B17 | 7.2 nM | 0.00031 s⁻¹ | 43000 M⁻¹ s⁻¹
B18 | 5.4 nM | 0.0002 s⁻¹ | 36000 M⁻¹ s⁻¹

— patent publication US20220177596A1 (Bristol-Myers Squibb, published 2022)
